Experimental data as given in paper PMC3404986, “Pyridoxal 5′-Phosphate Is a Slow Tight Binding Inhibitor of E. coli Pyridoxal Kinase” (PLoS ONE, 2012).

Tests used:
Cc1ncc(CO)c(C=O)c1O = test system: T1, Cc1ncc(CO)c(C=O)c1O; test: purified protein; assay type: biochemical, Escherichia coli; details: MgATP co-substrate, 20 mM K-HEPES pH 7.5, 0.2 mM MgCl2, 37°C
T1 construct: full length, recombinant from E. coli; wild type untagged (as previously described); K229Q His-tagged (C-terminus; pET28a NdeI/EcoRI)

[1] = test system: T2, Nc1ncnc2c1ncn2[C@@H]1O[C@H](COP(=O)(O)OP(=O)(O)OP(=O)(O)O)[C@@H](O)[C@H]1O; test: purified protein; assay type: biochemical, Escherichia coli; details: PL co-substrate, 20 mM K-HEPES pH 7.5, 0.2 mM MgCl2, 37°C
T2 construct: full length, recombinant from E. coli; wild type untagged (as previously described); K229Q His-tagged (C-terminus; pET28a NdeI/EcoRI)

**Q.** With “ePL kinase (E. coli pyridoxal kinase 1, PL kinase1) (Escherichia coli K-12)” as the substance, how does the Km (Cc1ncc(CO)c(C=O)c1O) read?
**A.** Its Km is 60 µM.

**Q.** And the kcat (Cc1ncc(CO)c(C=O)c1O)?
**A.** The kcat was 4 s⁻¹.

**Q.** What about the Km [1] of the same substance?
**A.** The Km was 460 µM.

**Q.** And the kcat [1]?
**A.** Its kcat is 4 s⁻¹.

**Q.** How did the Km (Cc1ncc(CO)c(C=O)c1O; His-tagged) turn out when “ePL kinase (E. coli pyridoxal kinase 1, PL kinase1) (Escherichia coli K-12; K229Q)” was run?
**A.** The Km was 384 µM.

**Q.** What about the kcat (Cc1ncc(CO)c(C=O)c1O; His-tagged) of the same substance?
**A.** The kcat was 0.433 s⁻¹.

**Q.** And the Km ([1]; His-tagged)?
**A.** The Km was 122 µM.

**Q.** What about the kcat ([1]; His-tagged) of the same substance?
**A.** Its kcat is 0.433 s⁻¹.
